The values below come from the supplement of paper PMC12042874.

± gives the uncertainty stated by the source.

The nature of the data set: amyloid nucleation score (Sup35N fusion, yeast selection) (log enrichment); library NNK3; higher = more nucleation; inactive = no reads after selection. The method, boiled down: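 Using DiMSum, nucleation scores were taken as the log enrichment of output over input reads, centred on the mode score of non-aggregating sequences. The input and output reads came from Illumina sequencing of plasmid inserts, with sequences under 100 input reads excluded. The yeast were psi-negative, expressed Sup35N fused to peptides of 20 random codons, were induced with 100 μM copper sulfate for 24 hours, and were grown 7 days at 30°C on medium lacking adenine and uracil.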
Regarding ELLWNLRGNFDIDLGSFIRT, the amyloid nucleation score result is “inactive”.

ELNIN: the amyloid nucleation score result was “inactive”.

With ELNRDDCEGSSATPQRDFNV, the amyloid nucleation score result was “inactive”. Under ELNTFKSTQIHWGIGDSSQE stands 0.34 ± 0.31; under ELRQMTRVSVLASYTWSTTL, -0.014 ± 0.46.

On to ELRSIR, for which the amyloid nucleation score entry is “inactive”.

In the case of ELVCVA, the amyloid nucleation score entry is “inactive”.

Regarding ELYVMLGDGAFVRAIKDYVS, the amyloid nucleation score entry was “inactive”.

On to EMCSA, for which the amyloid nucleation score entry is “inactive”. The value for EMSAMRCILLMRVDPICSLS was “inactive”. Under ENLLISKRCINGMA stands “inactive”; under ENLLNMFWMFPLWYLGFNLG, “inactive”. Turning to ENTCYRVGALIAAFTSFKLW, the amyloid nucleation score entry is “inactive”. Under ENTTMVGHMGYSLMFSYK stands 1.25 ± 0.12; under ENVPLNAAYCSL, “inactive”.

As for EPNRVLMKVQYRNSPCYTRR, the amyloid nucleation score result was “inactive”. The value for EPVFCMWLDMGLGPNDCRMA was “inactive”.

Consider EQLISTSPLCVFIGFLVVLY, for which the amyloid nucleation score result is “inactive”. Turning to ERFLIPSDLNYKYA, the amyloid nucleation score result is “inactive”. Under ERFNPDEVCE stands “inactive”; under ERFRGMDRHVGVVWYDFV, “inactive”. Under ERLSMLVPYISDRYWLSDVN stands “inactive”. Under ESFPEFVEVGICR stands “inactive”; under ESRMDRCCPSFGMCSLRYQK, “inactive”. As to ESRVPRSIKDSL, the amyloid nucleation score result is “inactive”.

As for ESTYVDGRNTVNDYCPNSTI, the amyloid nucleation score entry was “inactive”.

Turning to ESYINLDIHNYIKTIILSLA, the amyloid nucleation score result is “inactive”. Under ETGMLCSGYCKGVCARDDPG stands “inactive”; under ETRFWNLIHADYIRMIGAGF, “inactive”. Under ETYKITLRTCLLATAGLREF stands “inactive”; under EVCFIRLLLLYCR, “inactive”. The value for EVCNVVTCGNLFKVTIYNSQ was 2.43 ± 0.068; that for EVVITLANAEGPAEQEF was “inactive”. On to EVVPCCF, for which the amyloid nucleation score result is “inactive”. Under EWLGNCRNDCVMWLCYNMAS stands “inactive”; under EWSLKIVTMNMASWM, “inactive”; under EYADTEKVASNVLFFSRLAG, “inactive”. EYENLYLRVQFSYMLLFLVM: the amyloid nucleation score is -1.33 ± 1.8. The value for EYGSATVVWNHYFSPWVRFF was -0.213 ± 0.9. Under EYNPTYYFYRTFMAFFLKMI stands “inactive”; under EYRGKIDVYYLIGQNYSVSC, 0.621 ± 0.27; under EYSFSLWSVSPAYTHITYGG, -0.192 ± 0.71. Turning to FAAAFDRGQGKS, the amyloid nucleation score entry is “inactive”. The value for FADVGTEFSCQEVNMKTHPS was “inactive”; that for FAEYISQ was 0.293 ± 0.23; that for FAICSYANAEVSWKDGESAY was “inactive”.

FASIRSRTRDRVSYVTPSFL: the amyloid nucleation score result is “inactive”. Turning to FASTVCEIPSFPWTKPRIMV, the amyloid nucleation score result is “inactive”. The value for FASVFVMN was “inactive”.

For FAYLF, the amyloid nucleation score result is “inactive”. The value for FAYLFPCMLLPRSLFAFRIN was “inactive”; that for FCCLEWNFIFNTSGHVSNNV was 3.31 ± 0.079; that for FCDNQWRHKPTRVTIFFE was “inactive”.

Turning to FCFSGRMTYHFTTWFIKRRS, the amyloid nucleation score entry is “inactive”. The value for FCGKLSCCFIRLAELFLVGK was “inactive”. Consider FCIQSVFCCT, for which the amyloid nucleation score came out at 2.88 ± 0.071.

In the case of FCMMKRSFCPDLNKLATDLV, the amyloid nucleation score result was “inactive”.

Take FCPPADGRVTGTCDLFLTNS: the amyloid nucleation score entry was “inactive”. The value for FCSPSFYFGADGDTT was 1.99 ± 0.058; that for FCVIMSM was “inactive”; that for FCYSDLNYRWICYSRDVESS was “inactive”. Under FDDVGSNSLHCIMMHELLGV stands “inactive”. The value for FDDYLKSYFKQYSNDHVG was “inactive”; that for FDGFGMDNIWKTFRNPHLMG was “inactive”. On to FDLWNIILVYIPVNACC, for which the amyloid nucleation score stood at 0.735 ± 0.11. Under FDNKFKHSYYDTLAA stands “inactive”; under FDNVISILPPYFTSFSG, “inactive”; under FDRAFYNHWFSCGFPEGWHT, 0.501 ± 0.17.

As for FDRDWDMFFVRIVSQCGMLW, the amyloid nucleation score result was “inactive”. Under FDTFTMTEDSNPEKSECGLK stands “inactive”.

As for FDVELALWC, the amyloid nucleation score entry is “inactive”. Under FEFKSIGNRLGSYTQASWFA stands “inactive”; under FELPMHTGV, “inactive”; under FELRGTLGG, 0.026 ± 0.37. In turn, FELYLQLN came in with an amyloid nucleation score of 0.478 ± 0.38. The value for FEQNVGGLYWNKWSWGNLMR was “inactive”; that for FFCSGS was “inactive”. With FFETRKYCGKEWFSGMLDMQ, the amyloid nucleation score entry is “inactive”. For FFLAASPISRNWWSSSLGHS, the amyloid nucleation score entry is “inactive”. Under FFLIDYIYWVGIFNYSLILV stands “inactive”; under FFLYAVLLFTLLPSVLASGN, “inactive”; under FFPKWFCMTLLINDVGNHDM, 0.921 ± 0.25.

Turning to FFRFRKCAM, the amyloid nucleation score entry was “inactive”. Under FFRSQKWKSAYMLDNGHSNS stands “inactive”; under FFSSPFMFPASGATVPQRFQ, “inactive”; under FFTSTLLSRPNVPNIYSISR, “inactive”. The value for FFVYHTILRLPNGAGLRCGP was “inactive”.

Turning to FGCRSNDNQ, the amyloid nucleation score result is “inactive”. The value for FGEMRFCFCAG was “inactive”; that for FGLNSCTSYKYQLSMSGFST was -0.491 ± 0.66. On to FGLTTRRRPRNVW, for which the amyloid nucleation score entry is “inactive”. The value for FGNFPSCE was “inactive”; that for FGRLTV was “inactive”; that for FGSCSEVFSYVAYLRGINDF was “inactive”.

In the case of FGSLRCFGWLAWSICVNMYY, the amyloid nucleation score result is “inactive”. Under FGTPMVNVCMPS stands “inactive”; under FGVFGEIDIYCGW, “inactive”.
